# Source: patent publication WO2006121159A1 (dated 2006)
# Target: T1, CD10 (membrane fraction of the CD10-high-expressing human small cell lung cancer cell line SBC-3) (human, UniProt P08473 2-750)
# T1 construct: whole, on cells; The antigen was a crude cell membrane fraction, not purified CD10 and not intact cells; also called CALLA; neutral endopeptidase
# Experiment: ELISA; plate coated with membrane fraction of CD10-high SBC-3 cells; peroxidase-labelled anti-human IgG(H&L); OD415
# T1 sequence (P08473 2-750): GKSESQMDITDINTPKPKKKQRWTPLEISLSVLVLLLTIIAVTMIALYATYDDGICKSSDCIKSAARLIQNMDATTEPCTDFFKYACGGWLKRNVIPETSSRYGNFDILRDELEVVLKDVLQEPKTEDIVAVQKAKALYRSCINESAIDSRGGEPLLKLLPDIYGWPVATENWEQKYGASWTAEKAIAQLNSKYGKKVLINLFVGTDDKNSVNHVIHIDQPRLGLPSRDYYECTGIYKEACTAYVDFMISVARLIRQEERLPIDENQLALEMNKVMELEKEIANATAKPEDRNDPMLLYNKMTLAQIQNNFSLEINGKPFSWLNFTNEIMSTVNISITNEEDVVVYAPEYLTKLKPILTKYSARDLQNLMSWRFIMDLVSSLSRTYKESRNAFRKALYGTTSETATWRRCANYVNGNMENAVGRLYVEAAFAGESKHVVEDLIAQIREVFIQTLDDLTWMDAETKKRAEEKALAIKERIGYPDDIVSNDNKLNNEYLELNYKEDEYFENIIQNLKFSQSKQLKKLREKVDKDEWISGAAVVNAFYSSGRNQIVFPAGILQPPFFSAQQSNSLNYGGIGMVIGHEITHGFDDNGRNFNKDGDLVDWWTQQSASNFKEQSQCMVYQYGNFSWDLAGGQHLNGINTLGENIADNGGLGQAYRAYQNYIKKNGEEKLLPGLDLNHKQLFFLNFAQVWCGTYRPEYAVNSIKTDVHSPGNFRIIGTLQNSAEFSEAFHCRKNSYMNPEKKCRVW
row,binding result,Binder
1,binds,"MS705/HV0LV9 antibody (anti-CD10 CDR-grafted antibody obtained from the HV0LV9MS705 strain, FERM BP-10099) (antibody, V domains shown, Whole antibody expressed from pKANTEX3061HV0LV9 (human constant regions)) VH: EVQLVESGGGVVQPGRSLRLSCAASGFTFSSFGMHWVRQAPGKGLEWVAYISGGSYTIYYADTVKGRFTISRDNSKNTLYLQMNSLRAEDTAVYYCARSYGNFWYFDVWGQGTTVTVSS VL: DIVMTQSPDSLAVSLGERATIACSVSSSISSSNLHWYQQKPGQSPKPWIYGTSNLASGVPVRFSGSGSGTSYFLTISSLQAEDVATYYCQQWSSYPLTFGQGTKVEIKR"
2,binds,"MS705/HV0LV0 antibody (anti-CD10 CDR-grafted antibody obtained from the HV0LV0MS705 strain) (antibody, V domains shown, Whole antibody expressed from pKANTEX3061HV0LV0 (human constant regions from the anti-CD10 chimeric antibody expression vector)) VH: EVQLVESGGGVVQPGRSLRLSCAASGFTFSSFGMHWVRQAPGKGLEWVAYISGGSYTIYYADTVKGRFTISRDNSKNTLYLQMNSLRAEDTAVYYCARSYGNFWYFDVWGQGTTVTVSS VL: DIVMTQSPDSLAVSLGERATINCSVSSSISSSNLHWYQQKPGQPPKLLIYGTSNLASGVPDRFSGSGSGTDFTLTISSLQAEDVAVYYCQQWSSYPLTFGQGTKVEIKR"
3,binds,"MS705/HV2LV9 antibody (anti-CD10 CDR-grafted antibody obtained from the HV2LV9MS705 strain) (antibody, V domains shown, Whole antibody expressed from pKANTEX3061HV2LV9 (human constant regions)) VH: EVQLVESGGGVVQPGRSLRLSCAASGFTFSSFGMHWVRQAPEKGLEWVAYISGGSYTIYYADTVKGRFTISRDNSKNTLYLQMNSLRAEDTAVYYCASSYGNFWYFDVWGQGTTVTVSS VL: DIVMTQSPDSLAVSLGERATIACSVSSSISSSNLHWYQQKPGQSPKPWIYGTSNLASGVPVRFSGSGSGTSYFLTISSLQAEDVATYYCQQWSSYPLTFGQGTKVEIKR"
